Assay results reported in the supplement of paper PMC6757056.
± gives the standard deviation of the averaged measurements.

B1: library; a variant is named by its letters at N, in order (parent)
chain: GCUGUCACCGAGAAACUGUGAAGUAUAUCUUAAACCUGGGCACUUAAAAGAUAUAUGGAGUUAGUAGUGCAACCUGCUCGGUCUGAUGAGUCCNNNNNNGGACGAAACAGC

Key:
[1] = variants of: B1; assay: FACS-Seq fitted mean relative fluorescence mCherry/BFP without ligand (log10 relative fluorescence); HEK293T; ligand: cyclic di-GMP (c-di-GMP-II aptamer); higher = higher reporter protein expression; conditions: ligand present: no
How it was run: (§1)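 To measure fluorescence, a normal distribution was fitted to read counts across sorted bins. The reporter libraries were HEK293T cells transduced by lentivirus with mCherry under ribozyme-switch control and an EF1α-BFP marker, enriched and then kept with or without ligand for 48 h. Sorting used 6 mCherry/BFP bins, and bin genomic DNA was PCR-amplified and sequenced on MiSeq. Fitted means of log10(mCherry/BFP) were scaled to five spiked-in control ribozymes.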

[2] = variants of: B1; assay: normalized RNA/DNA level without ligand (relative to sTRSVctl = 100) (log10 (% of sTRSVctl)); HEK293T; ligand: cyclic di-GMP (c-di-GMP-II aptamer); higher = less ribozyme self-cleavage, higher mRNA level; conditions: reporter: mCherry (pCS4076), ligand present: no
Method: (§2)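 Hammerhead (sTRSV) ribozyme switch libraries with a ligand aptamer grafted on stem I and a randomized N4-6 loop II, cloned into the 3' UTR of mCherry and transiently transfected into HEK293T cells; RNA-Seq 72 h post transfection with ligand added 1 h before transfection; RNA read count / plasmid DNA read count normalized to the non-cleaving sTRSVctl (x100), log10; sequences with >100 DNA reads. FACS-Seq: lentiviral library sorted into 6 bins after 48 h ligand, log-normal fit mean of mCherry/BFP scaled to controls. Printed sequences are partial switch sequences.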

[3] = variants of: B1; assay: FACS-Seq fitted mean relative fluorescence mCherry/BFP with ligand (log10 relative fluorescence); HEK293T; ligand: cyclic di-GMP (c-di-GMP-II aptamer); ligand concentration (+) FACS-Seq: 1 mM; higher = higher reporter protein expression; conditions: ligand present: yes
How it was run: as §1

[4] = variants of: B1; assay: normalized RNA/DNA level with ligand (relative to sTRSVctl = 100) (log10 (% of sTRSVctl)); HEK293T; ligand: cyclic di-GMP (c-di-GMP-II aptamer); ligand concentration (+) RNA-Seq: 1 mM; higher = less ribozyme self-cleavage, higher mRNA level; conditions: reporter: mCherry (pCS4076), ligand present: yes
Method: as §2

| Variant | FACS-Seq fitted mean (log10) [1] | normalized RNA/DNA level without ligand (log10) [2] | FACS-Seq fitted mean (log10) [3] | normalized RNA/DNA level with ligand (log10) [4] |
| --- | --- | --- | --- | --- |
| GCUGUCACCGAGAAACUGUGAAGUAUAUCUUAAACCUGGGCACUUAAAAGAUAUAUGGAGUUAGUAGUGCAACCUGCUCGGUCUGAUGAGUCCAAUAGAGGACGAAACAGC | -0.609 ± 0.01 | 1.39 ± 0.12 | -0.411 ± 0.015 | 1.58 ± 0.08 |
| GCUGUCACCGAGAAACUGUGAAGUAUAUCUUAAACCUGGGCACUUAAAAGAUAUAUGGAGUUAGUAGUGCAACCUGCUCGGUCUGAUGAGUCCAAUAGGGGACGAAACAGC | -0.474 ± 0.0071 | 1.5 ± 0.069 | -0.162 ± 0.0064 | 1.68 ± 0.12 |
| GCUGUCACCGAGAAACUGUGAAGUAUAUCUUAAACCUGGGCACUUAAAAGAUAUAUGGAGUUAGUAGUGCAACCUGCUCGGUCUGAUGAGUCCAAUAGUGGACGAAACAGC | -0.33379 ± 0.00027 | 1.6 ± 0.034 | 0.0812 ± 0.061 | 1.74 ± 0.11 |
| GCUGUCACCGAGAAACUGUGAAGUAUAUCUUAAACCUGGGCACUUAAAAGAUAUAUGGAGUUAGUAGUGCAACCUGCUCGGUCUGAUGAGUCCCAUAGUGGACGAAACAGC | -0.641 ± 0.058 | 1.72 ± 0.025 | -0.575 ± 0.046 | 1.85 ± 0.066 |
| GCUGUCACCGAGAAACUGUGAAGUAUAUCUUAAACCUGGGCACUUAAAAGAUAUAUGGAGUUAGUAGUGCAACCUGCUCGGUCUGAUGAGUCCUAUAGAGGACGAAACAGC | -0.453 ± 0.17 | 1.65 ± 0.021 | -0.265 ± 0.034 | 1.81 ± 0.15 |
| GCUGUCACCGAGAAACUGUGAAGUAUAUCUUAAACCUGGGCACUUAAAAGAUAUAUGGAGUUAGUAGUGCAACCUGCUCGGUCUGAUGAGUCCUAUAGUGGACGAAACAGC | -0.943 ± 0.17 | 1.65 ± 0.03 | -0.713 ± 0.099 | 1.79 ± 0.068 |
| GCUGUCACCGAGAAACUGUGAAGUAUAUCUUAAACCUGGGCACUUAAAAGAUAUAUGGAGUUAGUAGUGCAACCUGCUCGGUCUGAUGAGUCCUAUAGCGGACGAAACAGC | -0.313 ± 0.039 | 1.73 ± 0.044 | -0.0839 ± 0.078 | 1.83 ± 0.19 |
